Measured values: the RNAGym collection of RNA variant scans (doi:10.7554/elife.80360)

B1: Hairpin Ribozyme (parent)
chain: GUCCUCUUUCACGUGCGCGUGAAAGAGAGAAGUGAACCAGAGAAACACACGUUGUGGUAUAUUACCUGGUA

Variants of: B1
Assay: self-cleavage, relative activity (ratio to wild type); higher = more cleavage; co-transcriptional

Row | Variant | self-cleavage
1 | GUCCUCUUUCACGUGCGCGUGAAAGAGAGAAGUGAAGCAGAGAAACAAACGUUGUGGUAUAUUACCUGGUA | 0.192
2 | GUCCUCUUUCACGUGCGCGUGAAAGAGAGAAGUGAAGCAGAGAAACACAGGUUGUGGUAUAUUACCUGGUA | 0.0454
3 | GUCCUCUUUCACGUGCGCGUGAAAGAGAGAAGUGAAGCAGAGAAACACACGUUGUGGUAUAUUACGUGGUA | 0.154
4 | GUCCUCUUUCACGUGCGCGUGAAAGAGAGAAGUGAAGCAUAGAAACACACGUUGUGGUAUAUUACCUGGUA | 0.186
5 | GUCCUCUUUCACGUGCGCGUGAAAGAGAGAAGUGAAGCAGACAAACACACGUUGUGGUAUAUUACCUGGUA | 0.152
6 | GUCCUCUUUCACGUGCGCGUGAAAGAGAGAAGUGAAGCAGAGAAACACACAUUGUGGUAUAUUACCUGGUA | 0.647
7 | GUCCUCUUUCACGUGCGCGUGAAAGAGAGAAGUGAAGCAGAGAAACACACGUUUUGGUAUAUUACCUGGUA | 0.255
8 | GUCCUCUUUCACGUGCGCGUGAAAGAGAGAAGUGAAGCAGAGAAACACACGUUGUCGUAUAUUACCUGGUA | 0.176
9 | GUCCUCUUUCACGUGCGCGUGAAAGAGAGAAGUGAAGCAGAGAAACACACGUUGUGAUAUAUUACCUGGUA | 0.13
10 | GUCCUCUUUCACGUGCGCGUGAAAGAGAGAAGUGAAGCAGAGAAACACACGUUGUGUUAUAUUACCUGGUA | 0.141
11 | GUCCUCUUUCACGUGCGCGUGAAAGAGAGAAGUGAAGCAGAGAAACACACGUUGUGGUAUAUUACCUCGUA | 0.131
12 | GUCCUCUUUCACGUGCGCGUGAAAGAGAGAAGUGAAGCAGAGAAACACACGUUGUGGUAUAUUACCUGAUA | 0.346
13 | GUCCUCUUUCACGUGCGCGUGAAAGAGAGAAGUGAAGCAGAGAAACACACGUUGUGGUAUAUUACCUGCUA | 0.984
14 | GUCCUCUUUCACGUGCGCGUGAAAGAGAGAAGUGAAGCAGAGAAACACACGAUGUGGUAUAUUACCUGGUA | 0.358
15 | GUCCUCUUUCACGUGCGCGUGAAAGAGAGAAGUGAAGCAGAGAAACACACGCUGUGGUAUAUUACCUGGUA | 0.242
16 | GUCCUCUUUCACGUGCGCGUGAAAGAGAGAAGUGAAGCAGAGAAACACACGUUGUGGUACAUUACCUGGUA | 0.331
17 | GUCCUCUUUCACGUGCGCGUGAAAGAGAGAAGUGAAGCAGAGAAACACACGUUGUGGUAUAGUACCUGGUA | 0.138
18 | GUCCUCUUUCACGUGCGCGUGAAAGAGAGAAGUGAAGCAGAGAAACACACGUUGUGGUAUAUCACCUGGUA | 0.154
19 | GUCCUCUUUCACGUGCGCGUGAAAGAGAGAAGUGAAGCAGAGAAACACACGUUGUGGUAUAUUACCCGGUA | 0.167

Row | Variant | self-cleavage
20 | GUCCUCUUUCACGUGCGCGUGAAAGAGAGAAGUGAAGCAGAGAAACACACGUUGUGGUAUAUUACCGGGUA | 0.132
21 | GUCCUCUUUCACGUGCGCGUGAAAGAGAGAAGUGAAGCAGAGAAACACACGUUGUGGUAUAUUACCUGGAA | 0.488
22 | GUCCUCUUUCACGUGCGCGUGAAAGAGAGAAGUGAAUCAGAGAAACACACGUUGUGGUAUAUUACCUGGUA | 0.614
23 | GUCCUCUUUCACGUGCGCGUGAAAGAGAGAAGUGAAUCGGAGAAACACACGUUGUGGUAUAUUACCUGGUA | 0.269
24 | GUCCUCUUUCACGUGCGCGUGAAAGAGAGAAGUGAAUCAGGGAAACACACGUUGUGGUAUAUUACCUGGUA | 0.994
25 | GUCCUCUUUCACGUGCGCGUGAAAGAGAGAAGUGAAUCAGAGCAACACACGUUGUGGUAUAUUACCUGGUA | 0.126
26 | GUCCUCUUUCACGUGCGCGUGAAAGAGAGAAGUGAAUCAGAGUAACACACGUUGUGGUAUAUUACCUGGUA | 0.0491
27 | GUCCUCUUUCACGUGCGCGUGAAAGAGAGAAGUGAAUCAGAGAUACACACGUUGUGGUAUAUUACCUGGUA | 0.173
28 | GUCCUCUUUCACGUGCGCGUGAAAGAGAGAAGUGAAUCAGAGAACCACACGUUGUGGUAUAUUACCUGGUA | 0.109
29 | GUCCUCUUUCACGUGCGCGUGAAAGAGAGAAGUGAAUCAGAGAAUCACACGUUGUGGUAUAUUACCUGGUA | 0.11
30 | GUCCUCUUUCACGUGCGCGUGAAAGAGAGAAGUGAAUCAGAGAAACACCCGUUGUGGUAUAUUACCUGGUA | 0.0924
31 | GUCCUCUUUCACGUGCGCGUGAAAGAGAGAAGUGAAUCAGAGAAACACGCGUUGUGGUAUAUUACCUGGUA | 0.508
32 | GUCCUCUUUCACGUGCGCGUGAAAGAGAGAAGUGAAUCAGAGAAACACACGUUGUGGUAUAUUACCUGGUG | 0.779
33 | GUCCUCUUUCACGUGCGCGUGAAAGAGAGAAGUGAAUCAGAGAAAUACACGUUGUGGUAUAUUACCUGGUA | 0.198
34 | GUCCUCUUUCACGUGCGCGUGAAAGAGAGAAGUGAAUCAGAGAAACAAACGUUGUGGUAUAUUACCUGGUA | 0.12
35 | GUCCUCUUUCACGUGCGCGUGAAAGAGAGAAGUGAAUCAGAGAAACACAGGUUGUGGUAUAUUACCUGGUA | 0.226
36 | GUCCUCUUUCACGUGCGCGUGAAAGAGAGAAGUGAAUCAGAGAAACACACGUUGUGGUAUAUUAACUGGUA | 0.533
37 | GUCCUCUUUCACGUGCGCGUGAAAGAGAGAAGUGAAUCAGAGAAACACACGUUGUGGUAUAUUACUUGGUA | 0.264
38 | GUCCUCUUUCACGUGCGCGUGAAAGAGAGAAGUGAAUCAGAAAAACACACGUUGUGGUAUAUUACCUGGUA | 0.198
